Measured values reported in article PMC2266796.

Assays:
Assay in all cases: SEC-MALS; 100 ug purified Strep-tagged PfPdx1 on Superdex 200 10/30 with static light scattering (miniDAWN Tristar); 100 mM Tris-HCl pH 8.0, 150 mM NaCl, no amino acid added
[1] = molecular target: PfPdx1 D26A (P. falciparum) (UniProt C6KT50)
[2] = molecular target: PfPdx1 K83A (P. falciparum) (UniProt C6KT50)
[3] = molecular target: PfPdx1 ERR (E136A/R139A/R140A) triple mutant (P. falciparum) (UniProt C6KT50)

## PfPdx1 D26A (from UniProt C6KT50 1-301) (enzyme)
[1]
  stoichiometry N: 12

## PfPdx1 K83A (from UniProt C6KT50 1-301) (enzyme)
[2]
  stoichiometry N: 12

## PfPdx1 ERR (E136A/R139A/R140A) triple mutant (from UniProt C6KT50 1-301) (enzyme)
[3]
  stoichiometry N: 12
